The values below come from the supplement of paper PMC7125110.

± gives the standard error. For some assays here: Variants at the floor of the assay were thinned out.

Sequences and labels used below:
B1: glmS ribozyme (parent)
chain: AUAAAAGCGCCAGAACUACAGAAAUGUAGUUGACGAGGAGGAGGUUUAUCGAAUUUUCGGCGGAUGCCUCCAAA

Holding throughout (details): with glucosamine-6-phosphate
Variants of B1 are the subject of data set [1]. Briefly: kcat; higher = faster cleavage; RNA array. In outline:
(§1)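 Over ~14 h at 37 °C, tiles were imaged as glucosamine-6-phosphate (40 μM to 10 mM) in HEPES/KCl/Mg(OAc)2 buffer flowed across sequenced MiSeq chips. The chips carried barcoded ribozyme variants transcribed in situ by E. coli RNA polymerase and tracked with a hybridised Cy3 probe. After normalisation to baseline and to non-cleaving reference variants, one- or two-exponential decay fits of per-tile medians gave kobs. kcat and KM followed from weighted Michaelis–Menten fits across concentrations.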

The variants in data set [2] derive from B1. Kind of data set: KM; higher = weaker cofactor use; RNA array. In a few lines:
as §1

In data set [3] the parent is B1. Kind of data set: self-cleavage kobs at 40 uM GlcN6P; higher = faster cleavage; RNA array. In a few lines: as §1
Data set [4] covers variants of B1. Kind of data set: self-cleavage kobs at 160 uM GlcN6P; higher = faster cleavage; RNA array. In outline:
as §1

Data set [5] covers variants of B1. Kind of data set: self-cleavage kobs at 640 uM GlcN6P; higher = faster cleavage; RNA array. In outline: as §1
Variants of B1 are the subject of data set [6]. Briefly: self-cleavage kobs at 2500 uM GlcN6P; higher = faster cleavage; RNA array. In a few lines: as §1
Data set [7] covers variants of B1. Kind of data set: self-cleavage kobs at 10000 uM GlcN6P; higher = faster cleavage; RNA array. In a few lines: as §1

AUAAAAGCGCCAGGACUACAGAAAUGUAGUUUACGAGGAGGAGGUUUAUCGAAUUUUCGGCGGAUGCCUCCAAA [A14G G32U]: in data set [1], the turnover number (kcat) (usually the number of substrate molecules converted per active site and unit of time at saturation) came out at 0.00512 ± 0.001 s⁻¹. For the same variant, the KM (usually the concentration of substrate that gives half-maximal velocity) in data set [2] was determined as 5710 ± 1400 µM. Also, the “self-cleavage kobs at 40 uM GlcN6P” value in data set [3] was 4.82e-05 ± 7.9e-06 s⁻¹. Besides, in data set [4], the “self-cleavage kobs at 160 uM GlcN6P” value turned out to be 0.000137 ± 1.8e-05 s⁻¹. The “self-cleavage kobs at 640 uM GlcN6P” value in data set [5] stood at 0.000476 ± 5.1e-05 s⁻¹. Moreover, in data set [6], the “self-cleavage kobs at 2500 uM GlcN6P” value worked out at 0.00158 ± 0.00017 s⁻¹. The “self-cleavage kobs at 10000 uM GlcN6P” value in data set [7] was determined as 0.00329 ± 0.0004 s⁻¹.
Consider AUAAAAGCGCCAGAACUACAGAAAUGUAGUUGACGAGGAGGAGGUUUAUCGAAUUUUCGGCGGAUACUUCCAAA [G66A C68U], for which the turnover number (kcat) in data set [1] came to 0.00532 ± 0.0011 s⁻¹. The KM in data set [2] came out at 983 ± 280 µM. For the same variant, the “self-cleavage kobs at 40 uM GlcN6P” value in data set [3] is 0.000228 ± 2.5e-05 s⁻¹. In addition, the “self-cleavage kobs at 160 uM GlcN6P” value in data set [4] was determined as 0.000531 ± 0.00015 s⁻¹. Besides, the “self-cleavage kobs at 640 uM GlcN6P” value in data set [5] worked out at 0.00267 ± 0.00085 s⁻¹. Further, the “self-cleavage kobs at 2500 uM GlcN6P” value in data set [6] was 0.00284 ± 0.00078 s⁻¹. For the same variant, the “self-cleavage kobs at 10000 uM GlcN6P” value in data set [7] was found to be 0.00549 ± 0.0008 s⁻¹.
In the case of AUAAAAGCGCCAGAACUACAGAAAUGUAGUUGACGAGGAGAAGGUAUAUCGAAUUUUCGGCGGAUGCCUCCAAA [G41A U46A], in data set [1], the kcat worked out at 0.000569 ± 0.0001 s⁻¹. The KM in data set [2] turned out to be 1480 ± 630 µM. Besides, the “self-cleavage kobs at 40 uM GlcN6P” value in data set [3] came out at 3.02e-05 ± 1.4e-05 s⁻¹. Also, the “self-cleavage kobs at 160 uM GlcN6P” value in data set [4] came out at 4.5e-05 ± 1.2e-05 s⁻¹. For the same variant, the “self-cleavage kobs at 640 uM GlcN6P” value in data set [5] came to 0.000168 ± 4.6e-05 s⁻¹. Moreover, in data set [6], the “self-cleavage kobs at 2500 uM GlcN6P” value was 0.000531 ± 7.8e-05 s⁻¹. The “self-cleavage kobs at 10000 uM GlcN6P” value in data set [7] amounted to 0.000462 ± 4.9e-05 s⁻¹.
As to AUAAAAGCGCCAGAACUACAGAAAUGUAGUUGACGAGGAGGAGGUUUAUCGAAUGUCCGGCGGAUGCCUCCAAA [U55G U57C], in data set [1], the catalytic constant (kcat) was 0.000252 ± 3.3e-05 s⁻¹. In addition, the KM in data set [2] worked out at 4830 ± 1100 µM. For the same variant, the “self-cleavage kobs at 40 uM GlcN6P” value in data set [3] was < 1e-05 s⁻¹. Further, in data set [5], the “self-cleavage kobs at 640 uM GlcN6P” value came to 3.51e-05 ± 1e-05 s⁻¹. Besides, in data set [6], the “self-cleavage kobs at 2500 uM GlcN6P” value stood at 7.83e-05 ± 1.6e-05 s⁻¹. For the same variant, the “self-cleavage kobs at 10000 uM GlcN6P” value in data set [7] is 0.000174 ± 2.6e-05 s⁻¹.
Take AUAAAAGCGCCAGAAAUACAGAAAUGUAGUUGACGAGGAGGAGGUUUUUCGAAUUUUCGGCGGAUGCCUCCAAA [C16A A48U]: the kcat in data set [1] is < 1e-05 s⁻¹. Also, the KM in data set [2] was found to be 163 ± 44 µM. The “self-cleavage kobs at 40 uM GlcN6P” value in data set [3] was < 1e-05 s⁻¹. Also, the “self-cleavage kobs at 160 uM GlcN6P” value in data set [4] is < 1e-05 s⁻¹.
For AUAAAAGCGCCAGAACUACAGAAAUGUAGUUGACGAGGAGGAGGUUUAUCGAUUUUUCGGCGGAUUCCUCCAAA [A53U G66U], the kcat in data set [1] stood at 0.00118 ± 0.00016 s⁻¹. Besides, the Michaelis-Menten constant (KM) in data set [2] was 2320 ± 590 µM. For the same variant, in data set [4], the “self-cleavage kobs at 160 uM GlcN6P” value was 6.64e-05 ± 1.7e-05 s⁻¹. For the same variant, the “self-cleavage kobs at 640 uM GlcN6P” value in data set [5] stood at 0.000307 ± 7.4e-05 s⁻¹. In addition, in data set [6], the “self-cleavage kobs at 2500 uM GlcN6P” value came to 0.000716 ± 0.00012 s⁻¹. In addition, the “self-cleavage kobs at 10000 uM GlcN6P” value in data set [7] was determined as 0.000904 ± 0.00012 s⁻¹.
AUAAACGCGCCCGAACUACAGAAAUGUAGUUGACGAGGAGGAGGUUUAUCGAAUUUUCGGCGGAUGCCUCCAAA [A6C A12C]: the kcat in data set [1] was 4.52e-05 ± 3.2e-06 s⁻¹. The KM in data set [2] was 1190 ± 370 µM. Also, in data set [6], the “self-cleavage kobs at 2500 uM GlcN6P” value was 2.86e-05 ± 7.1e-06 s⁻¹. The “self-cleavage kobs at 10000 uM GlcN6P” value in data set [7] came out at 4.11e-05 ± 6.6e-06 s⁻¹.
With AUAAAAGCGCCAGAACUACAGAAAUGUAGUUGACGAGGAGGAGGUUUAUCGAAUUUUCAGCGGAUGCCUGCAAA [G59A C70G], the turnover number (kcat) in data set [1] is 2.32e-05 ± 4.8e-06 s⁻¹. Further, the “self-cleavage kobs at 640 uM GlcN6P” value in data set [5] came out at 2.83e-05 ± 1.3e-05 s⁻¹.
As for AUAAAAGCGCCAGAAUUACAGAAAUGUAGUUGACGAGGAGGAGGUUUAUCGGAUUUUCGGCGGAUGCCUCCAAA [C16U A52G], the turnover number (kcat) in data set [1] was determined as 0.00224 ± 0.00092 s⁻¹. Further, the “self-cleavage kobs at 40 uM GlcN6P” value in data set [3] came out at 3.86e-05 ± 9e-06 s⁻¹. Further, in data set [4], the “self-cleavage kobs at 160 uM GlcN6P” value turned out to be 9.03e-05 ± 2.1e-05 s⁻¹. Also, the “self-cleavage kobs at 640 uM GlcN6P” value in data set [5] amounted to 0.000237 ± 5.8e-05 s⁻¹. Further, in data set [6], the “self-cleavage kobs at 2500 uM GlcN6P” value was 0.000576 ± 7.9e-05 s⁻¹. Also, the “self-cleavage kobs at 10000 uM GlcN6P” value in data set [7] was 0.0016 ± 0.00017 s⁻¹.
As to AUAAAAGCGCCAGAACUACAGAAAUGUAGUUGACGAGGAGGAGGUAUAUCGAAUUUUCGGUGGAUGCCUCCAAA [U46A C61U], the kcat in data set [1] is < 1e-05 s⁻¹. The “self-cleavage kobs at 160 uM GlcN6P” value in data set [4] was < 1e-05 s⁻¹. Further, the “self-cleavage kobs at 640 uM GlcN6P” value in data set [5] was < 1e-05 s⁻¹. Also, the “self-cleavage kobs at 2500 uM GlcN6P” value in data set [6] was < 1e-05 s⁻¹.
As for AUAAAAGCGCCAGAACUACAGAAAUGUAGUUGACGAGGAGGAGGUUUAUCGAAUUUUCGGAGGAUGACUCCAAA [C61A C67A], the kcat in data set [1] stood at 6.65e-05 ± 1.4e-05 s⁻¹. Moreover, the “self-cleavage kobs at 160 uM GlcN6P” value in data set [4] is 5.31e-05 ± 1.5e-05 s⁻¹. Further, the “self-cleavage kobs at 640 uM GlcN6P” value in data set [5] is 5.15e-05 ± 1.8e-05 s⁻¹. In data set [6], the “self-cleavage kobs at 2500 uM GlcN6P” value came to 7.72e-05 ± 1.8e-05 s⁻¹.
As to AUAAAAGCGCCUGAACUACAGAAAUGUAGUUGACGAGGAGGGGGUUUAUCGAAUUAUCGGCGGAUGUCUCCAAA [A12U A42G U56A C67U], in data set [1], the kcat is 0.004 ± 0.00068 s⁻¹. In data set [2], the Michaelis constant (KM) worked out at 794 ± 200 µM. Further, the “self-cleavage kobs at 40 uM GlcN6P” value in data set [3] was 0.000207 ± 5.3e-05 s⁻¹. For the same variant, the “self-cleavage kobs at 640 uM GlcN6P” value in data set [5] came out at 0.00156 ± 0.00046 s⁻¹. In addition, in data set [7], the “self-cleavage kobs at 10000 uM GlcN6P” value amounted to 0.00431 ± 0.0015 s⁻¹.
In the case of AUAAAAGCGCCAGAACUACAGAAAUGUAGCUGACGAGGAGGAGGUUUAUCGAAUUUUUGGCGGAUGCCUUCAAA [U30C C58U C70U], the catalytic constant (kcat) in data set [1] was found to be 3.42e-05 ± 1.3e-05 s⁻¹. Moreover, in data set [5], the “self-cleavage kobs at 640 uM GlcN6P” value turned out to be 5.85e-05 ± 2.1e-05 s⁻¹. Further, in data set [6], the “self-cleavage kobs at 2500 uM GlcN6P” value was determined as 3.95e-05 ± 1.9e-05 s⁻¹.
Take AUAAAAGCGCCAGAACUACAGAAAUGUAGUUGACGAGGAGGAGGUUUAUCGAGUUUUCGGCGGAUUCCUCCAAA [A53G G66U]: the kcat in data set [1] came to 0.00201 ± 0.0004 s⁻¹. In addition, the Michaelis constant (KM) in data set [2] was 1650 ± 540 µM. Further, in data set [3], the “self-cleavage kobs at 40 uM GlcN6P” value is 4.34e-05 ± 8.5e-06 s⁻¹. Besides, in data set [4], the “self-cleavage kobs at 160 uM GlcN6P” value stood at 0.000168 ± 3.4e-05 s⁻¹. In addition, the “self-cleavage kobs at 640 uM GlcN6P” value in data set [5] turned out to be 0.00056 ± 7.9e-05 s⁻¹. In addition, the “self-cleavage kobs at 2500 uM GlcN6P” value in data set [6] worked out at 0.00179 ± 0.00022 s⁻¹. Moreover, the “self-cleavage kobs at 10000 uM GlcN6P” value in data set [7] worked out at 0.00154 ± 0.00019 s⁻¹.
Take AUAAAAGCGCCAGAACUACAGAAAUGUAGUUGACGAGGAGGAGGUUCACCGAAUUUUCGGCGGAUGCCUCCAAA [U47C U49C]: the kcat in data set [1] was < 1e-05 s⁻¹. For the same variant, the “self-cleavage kobs at 640 uM GlcN6P” value in data set [5] is < 1e-05 s⁻¹.
Consider AUAAAUGCGCCAGAACUACAGAAAUGUAGUUGACGAGGAGGAGGUUUAACGAAUUUUCGGCGGAUGCCUCCAAA [A6U U49A], for which, in data set [1], the turnover number (kcat) is < 1e-05 s⁻¹. Besides, the “self-cleavage kobs at 160 uM GlcN6P” value in data set [4] is < 1e-05 s⁻¹. Moreover, the “self-cleavage kobs at 10000 uM GlcN6P” value in data set [7] is < 1e-05 s⁻¹.
